{
  "source": "patent US20160244499A1",
  "about": "(Stanford University, published 2016)",
  "binders": {"B1": {"name": "super-4 (IL-4 RGA), free, not bound to IL-4Rα (ligand)", "chain": "HKCDITLQEIIKTLNSLTEQKTLCTELTVTDIFAASKNTTEKETFCRAATVLRQFYSHHEKDTRCLGATAQQFHRHKQLIRFLKRLDRNLWGLAGLNSCPVKEANQSTLENFLERLRVIMQSKWFKCGAHHHHHH"}},
  "biological_target": "T1, γc on human cell lines (Ramos, HH, U937) (human, UniProt P31785 23-369)",
  "T1 sequence (looked up)": "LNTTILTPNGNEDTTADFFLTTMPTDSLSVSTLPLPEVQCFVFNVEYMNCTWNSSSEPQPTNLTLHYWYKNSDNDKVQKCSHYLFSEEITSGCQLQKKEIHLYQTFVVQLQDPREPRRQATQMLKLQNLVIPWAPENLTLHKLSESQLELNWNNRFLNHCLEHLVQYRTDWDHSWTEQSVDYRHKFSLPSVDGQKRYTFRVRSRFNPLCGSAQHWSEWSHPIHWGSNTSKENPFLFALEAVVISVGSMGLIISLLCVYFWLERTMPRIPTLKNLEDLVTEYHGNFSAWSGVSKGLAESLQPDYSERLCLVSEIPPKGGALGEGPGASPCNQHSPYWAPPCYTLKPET",
  "assay": "cell-based or functional assay",
  "data": [
    {"binder": "B1", "values": [
      {"measurement": "STAT6 phosphorylation in Ramos cells, potency against IL-4", "value": "~3", "unit": "fold"},
      {"measurement": "STAT6 phosphorylation in Ramos cells, potency against KFR", "value": "~10", "unit": "fold"}
    ]}
  ]
}
